Reference: article PMC11970506

Target: POTRA1, 2 construct of BamA (E. coli)
Test: SPR; Biacore T100; POTRA1, 2 immobilised by amine coupling to a CM5 chip; SurA flowed at 0 to 10 mg/ml; 25 mM MES, 150 mM NaCl, pH 6.5, 25°C

With “survival protein A (SurA), without the signal sequence (amino acids 21 to 428) (from UniProt P0ABZ6 21-428) (natural protein)” the Kd was 16 µM.
